Reference: the DeepSol protein solubility set

Experiment: soluble on expression in E. coli; label from the status in PepcDB or PDB records

Sequence | soluble on expression in E. coli
MGLLDMIGPVMVGPSSSHTAGACRLALLARHLLGEKPKRVEFGLHGSFAKTGKGHGTHLALAAGVLGLTPDDERLKESLSLAEREGVEVVFKEVELGDVHPNTVRMVLEGEKERLAVTGSSLGGGLVRVFDVDGFEVRITGSAPTLVIKNVDTPGVVARVARILADDEVNIAYLTVSRKKRGGEAMMSIEVDRPLSEVPLRYLEHLSYILWVRQIPPVMG | soluble
MGLSPGQTSVSFLWPLLEVRDHNTGRGLVPATVLTPGSPETLLELRQAFLGSRQARHGHDAAPSSGQQGCSVDRTAGRPVLGWRLRNSLTGQEGRQHLHLSGIRTSRKAKEYKPVFFGATEISVLMAVAESLREPPPPQWGWFLSSLFLKIF | not soluble
MGNKICQFKLVLLGESAVGKSSLVLRFVKGQFHEFQESTIGAAFLTQTVCLDDTTVKFEIWDTAGQERYHSLAPMYYRGAQAAIVVYDITNEESFARAKNWVKELQRQASPNIVIALSGNKADLANKRAVDFQEAQSYADDNSLLFMETSAKTSMNVNEIFMAIAKKLPKN | soluble
MGNTSSERAALERHGGHKTPRRDSSGGTKDGDRPKILMDSPEDADLFHSEEIKAPEKEEFLAWQHDLEVNDKAPAQARPTVFRWTGGGKEVYLSGSFNNWSKLPLTRSHNNFVAILDLPEGEHQYKFFVDGQWTHDPSEPIVTSQLGTVNNIIQVKKTDFEVFDALMVDSQKCSDVSELSSSPPGPYHQEPYVCKPEERFRAPPILPPHLLQVILNKDTGISCDPALLPEPNHVMLNHLYALSIKDGVMVLSATHRYKKKYVTTLLYKPI | soluble
MGPAHKARDDGEGGWSMNSHPPLSVQTLNTLDRKAFTTALHFAFELSPWVVERAWDARPFASVETMHAAMMAVLDAASTADKLALIRAHPELAGKAAIAKQLTAESNAEQASAGLDKLTPDEFARFHALNAAYNTRFGFPFIICVRLNDKASILEAMAARLSNDEASEIAQAITQIGLISKLRLLDAVTHLEHHHHHH | not soluble
MGPHSMRYFETAVSRPGLEEPRYISVGYVDNKEFVRFDSDAENPRYEPRAPWMEQEGPEYWERETQKAKGQEQWFRVSLRNLLGYYNQSAGGSHTLQQMSGCDLGSDWRLLRGYLQFAYEGRDYIALNEDLKTWTAADMAAQITRRKWEQSGAAEHYKAYLEGECVEWLHRYLKNGNATLLRTDSPKAHVTHHPRSKGEVTLRCWALGFYPADITLTWQLNGEELTQDMELVETRPAGDGTFQKWASVVVPLGKEQNYTCRVYHEGLPEPLTLRWEPPPST | soluble
MGQERLDNANPTLFDSKPRHRPVTGTERDESVEDPIDSWEIFDLIRDINDPEHPYTLEQLNVVQEELIKVFIDEEETFVKVNFTPTIPHCSMATLIGLAIRVKLLRSLHPKVKVSVSITPGSHSTEESINRQLADKERVAAAMENQGLMHAVNECLRVPE | not soluble
MGQGAPLFADKGGEIAALMRGAYFVAHNVDFDLPFLQAELERAGWPPFAGPTIDTVELARIVLPTAESYKLGDLARQLGLRHDRPHQADSDAEVTAKLFIALLKRLSRLPLMTLEQLRGLARHLKSDIYLLLDAVIAKKRNKAPADRAVAVYRGIALKQPAPEPDESDRRPALASFAAFCEQEPPLPLPGYKRRAGQWEMMRLVYEALSTSQHALIEAGTGLGKSLAYLIPAAFFACEQQERVVISTHTLQLQEQLIRRDWPVLRQIAPFPLRVAVLKGKQNYLSLDKFASFLSEPSDTYDAALLKCQVLVWLLETDSGDLDELNVSSGARLLLSALAIGEEEDGGRHHFFARAKERSERADVVITNHALLLHDLTGPAPLLPPFRHLIIDEAHRLEDAAARCFGEQIGYVSFRLLTAKIAQTIAKWQEAEQDAPNGALVRCQQRLEELQFEGDELFRLLRRYALDKKPARAGRCRYRFSPTDEQSRAWQAAVELCWRLRDLAAALSAEAKPLLSADTSGDFPPSALLSADLAALNRQMAALVRLLTEKEPGVVRWIEADEKGAANAVRLYSQPVDLADFFADQLFMKKRSVVLTSATLTVRGRFTYMAARLGLEDFYPLCRSFPPPFRYEEQAALFVPADMPLVSAVPLEDYAEAVAASVLAIARRLGRRVLVLFPSYELLKLTVDALKTEEEGEPFVLIAQGVQSGSPAKLLRTFLQFEHAVLFGTSSFWEGVDLPGSALDVLVIARLPFAPPDDPVMEAKSERIRLEGGDPFSELALPEAVLRFKQGFGRLIRTEDDKGAVFVLDRRLMASPYGADFLASLPPLSVHEGALSELLDKAETWLS | not soluble
MGQNDLVKTLRMNYLFDFYQSLLTNKQRNYLELFYLEDYSLSEIADTFNVSRQAVYDNIRRTGDLVEDYEKKLELYQKFEQRREIYDEMKQHLSNPEQIQRYIQQLEDLE | not soluble
MGQVEVIDRRQSVFGDDIQLQKRSSSYEIISNGVFLMSTENGRSEREMVTLGAQHMKNAVHSVLIGGLGVGITADEAVHLNDHVQVHVVEIEPSVVEWQYRYLYPFSNQALEHERTAIIISDIQQWLRTNERTYDLICLDTDNGPDWMVHKQNASLYGKIGLELVRERVRVGGAVSFWSASASESFLHELETLFDRVYEHAVSISHTLPPDYVYVACRDLEHHHHHH | soluble
MGRDRISELPDGLLNHILMYLHIEESIRTSVLSSRWRKLWLKVPGLDVNVHDFPADGNLFESLMDKFLEVNRGRLQNFKLNYESNLYYLMDRFVPWIATVVDRGIQHLDVTATDCPPWTIDFMPANICKSKTLVSLKLVNVGLDTPKFVVSLPCLKIMHLEDIFYSPLIAENLISGCPVLEDLTIVRNHEDFLNFLRVMSQTLKNFRLTFDWGMGSNDFSVEIDAPGLKYMSFRDSQSDRIVVKNLSSLVKIDLDTEFNLKFGLGSPLEPEDLTKRDIIRDFLTGISSVKHMIISHPTLEVLYRYSKIGQLPKFHNLYHLQAVFSSSLLQLLPAFLEICPNLKNLILDYSISAEPEQIDFTNLPRCLISTLEYVEIKQLTMREESGIKLVKYFLENSAVLKKLTLSFIDSPMTNQESEIYMQLLTSTKRSRGCHVLIL | soluble
MGRPRVARLDRERIAEAALELVDRDGDFRMPDLARHLNVQVSSIYHHAKGRAAVVELVRHRVVREIDGSAFERLPWDEAFSEWARSYRAAFSRHPTAIRLLATETVRDPGSLSVYHSAAAGLRGAGFPDDHIMAVITAAENFLLGAALDAAAPEVMIEADSTTTDDALTRALAAAPRGPERAEQAFELGLAALLAGFHHLLQECGAVQR | soluble
MGSCMKWDYGEMEDFSVSASGLFITNEGNFQYSNATLSYYDPATCEVENEVFYRANGFKLGDVAQSMVIRDGIGWIVVNNSHVIFAIDINTFKEVGRITGFTSPRYIHFLSDEKAYVTQIWDYRIFIINPKTYEITGYIECPDMDMESGSTEQMVQYGKYVYVNCWSYQNRILKIDTETDKVVDELTIGIQPTSLVMDKYNKMWTITDGGYEGSPYGYEAPSLYRIDAETFTVEKQFKFKLGDWPSEVQLNGTRDTLYWINNDIWRMPVEADRVPVRPFLEFRDTKYYGLTVNPNNGEVYVADAIDYQQQGIVYRYSPQGKLIDEFYVGLEHHHHHH | soluble
MGSDKIHHHHHHAADGEGRGELSPKIKAGDLESKLIVPKNNGLKITGTFLDEISHDIPHQNWGEKEWDLDFQHMKRIGIDTVIMIRSGYRKFMTYPSPYLLKKGCYMPSVDLVDMYLRLAEKYNMKFYFGLYDSGRYWDTGDLSWEIEDNKYVIDEVWKMYGEKYKSFGGWYISGEISRATKGAIDAFRAMGKQCKDISNGLPTFISPWIDGKKAIMGTGKLTREDAVSVQQHEKEWNEIFDGIHEVVDACAFQDGHIDYDELDAFFTVNKKLADKYGMQCWTNAESFDRDMPIRFLPIKFDKLRMKLEAAKRAGYDKAITFEFSHFMSPQSAYLQAGHLYDRYREYFEIK | not soluble
MGSDKIHHHHHHAADKRIDGNGNPETREIKISDYDEITFVGSADFEYEQSDKAPYLSVTIDENLFDYLVTEVEGGTLKIYPKSIKKGFNNNSYDLRPTVYKIKSNSKELKELNTVGSGSFIISKPTKVNRMEINMAGSGNVELRGPVKGYKLECNMAGSGNIIAKDIQLDNLSCSLASSGEIEVIGTVDRASFNVAGSGEIKAFDCQARKAECNIASSGEISVYATQILDANIVGSGEIHYKGDPEISKSIMGSGSINKVK | not soluble
MGSDKIHHHHHHAATVKLTIIKSDLDMKASGGTGTVEFAATGTVTATVNADWCQVIEVADHKVSISVDANTGYPGRSAQIVLTDGVSTQQATILQEGAIWKYNRDATYFTLTDAAEEVPVEMSSNLPIQVSIPADASQWLSYEMTSDGFKFIAKENLTGKIRSAIVKVTTGIREIEYALLQYDIDDLLGQWTGVVKVVATAFGINQVLSLEENTQIVKNPGGNGYIFQLPMTRLLGATIVLAVTYQDGALVITTPQQQNYALSDGQGGVMYGSIITKTDDGLYLQGKIILSPVLMNDGQVALAYITDAYMSMGLFKGRVPSTANYAGLSIDFPAILMQYAE | not soluble
MGSDKIHHHHHHAAVLSGCEFNEDFCIRNGELVAWCDFSGIRETPPVPEERHIIAFPSGMDIPSGEQMTFTQDTLRQSIPQGEYQFLFYTGNYEVSDIRDYHEARLMARTDTLEGEVYISGVQKFCCSAGFSQRLEYQRPKRVPITPSAFVQRLNIQINVSGNITPLAGLQGTLTGISTGRYLVSRERTGNASVTSLFSRKPETDRWKTSLYAFGFNPAAENILSVKIEMDGKDSVFNEEQKVDLTPYLRGFDSDELSLELDLHIGKELTIGEPVVIPDWEDIPETELPNYN | not soluble
MGSDKIHHHHHHACSDDDKVSISTVGITTTVDTTIEGLQLTGGTYTFENVNTSVKTDITYPAQSIELADGLYNVTFIGKGTYSQNGTPVEVDVQGVQQNVAVSGGSYKLELKVHVLNTGDPDFVIAEIFIPGTYNEAGKQYNGDQYIRIYNNSDKVLYADGLIFMESQFQTTQKYQSVDPDIMDEAIAVGSVVAVPGSGTDYPVQPGESFILCDNAINHKEANPNSIDLSKANFEWYIESKQDVDNPAVPNLDVYYCYSKTIWVLNKQGNRAYAIGRLPKSMTKEKYISDYAYNYTYIMQNGTASKPQSKYKFPNEWVIDAVNVGASNEWQWNVTSTGLDMGHTYIGMNNTVAENIGKCVMRKAAYKDGDREVLQDTNNSTVDFTPAATPSLFNK | not soluble
MGSDKIHHHHHHADILNCILPAEMLTGTDIDYNRPYDKSLNAYPIYIEVNNGTDLTRLAPTFELTEGASIEPANGSTQNFTNPVRYTVTSEDKNWHRTYAINIHYPETKSIPTVFNFENVKTVPYNKNEYYVLYEAASGYSTLTWSSGNQGFALTGSGYTPNDFPTSISPNGRTGNCLQLITRKTGSLGTLVGMPIAAGNLFIGSFDIGSAMSDALSATKFGTTFYYEPIKLVGYYKYKAGPEFYENGESTNRKDVFNIYALFYEKTKDVQMLDGHIAKNNYEHENMVAAAVITDTHETSEWTRFELDFNYEHYGKTIDPQKLANGGYNVSIVLSASKDGDVFQGAPGSTLLIDDLELVCKQPLR | not soluble
MGSDKIHHHHHHADSDDENSNFSSGITGMNLSAEVLKHQPMVEKYARENGISEYVNVLLAIIQVESGGTAEDVMQSSESLGLPPNSLDTESSIKQGCKYFASLLSSSKNQGIDDLNVAIQSYNYGGGYVGYVAGKGKKHTFNLAESFAREKSGGKKVTYTNPIAVAKNGGWRWNYGNMFYVELVNQYLTVPQVSGELAQKVMNEALKYQGWKYVYGGSNPNTSFDCSGLTQWCYGKAGISLPRTAQAQYDATQHLPLSQAKAGDLVFFHSTYNAGSYVTHVGIYVGNNQMYHAGDPIGYADLSSSYWQQHLIGAGRVKQ | not soluble
